Measurements reported in patent US20110091971A1, “Differentiation of Pluripotent Stem Cells” (priority 2008, published 2011).
Changes are numbered by the printed parent chain.

B1: ACTN4: activin A variant peptide, SEQ ID 5 (protein)
chain: GLECDGKVNLCCKKQLFVSFKDIGWNDWIIAPSGYHANHCSGLCPSHIAGTSGSSLSFHSTVINHYRMRGHSPFSDMGACCVPTKLRPMSMLYYDDGQNIIKKDIQNMIVEECGCS
B2: ACTN48: activin A variant peptide, SEQ ID 49 (protein)
chain: B1 chain with L16N, H39E, S75A, D76N, V82I

Test system: Human Embryonic Stem Cells (H1 hESC line)
Assay: RT-PCR of pancreatic differentiation markers at conclusion of step four of differentiation (Example 12)
Type: cell-based
Settings: end of step four; relative to commercial activin A or ACTN1
Procedure: Step 4 of the differentiation protocol was carried out over three days. Cells were fed daily by aspirating the medium from each well and replacing with a fresh aliquot (0.5 ml) of DMEM-high glucose supplemented with 1% B27, 100 ng/ml Noggin, 100 ng/ml Netrin-4 (R&D Systems; Cat #), 1 μM DAPT, and 1 μM Alk 5 inhibitor (Axxora; Cat #ALX-270-445). At the conclusion of the fourth step of differentiation, cells from some wells were harvested for analysis by RT-PCR to measure markers of differentiation.
RT-PCR Analysis: RNA samples were purified by binding to a silica-gel membrane (Rneasy Mini Kit, Qiagen, CA) in the presence of an ethanol-containing, high-salt buffer followed by washing to remove contaminants. The RNA was further purified using a TURBO DNA-free kit (Ambion, INC), and high-quality RNA was then eluted in water. Yield and purity were assessed by A260 and A280 readings on a spectrophotometer. […]
Unless otherwise stated, all reagents were purchased from Applied Biosystems. […] For each primer/probe set, a Ct value was determined as the cycle number at which the fluorescence intensity reached a specific value in the middle of the exponential region of amplification. Relative gene expression levels were calculated using the comparative Ct method. […] The normalized amount of target was calculated as 2-ΔCt, assuming amplification to be 100% efficiency. […]

Molecule	expression of downstream pancreatic differentiation markers (RT-PCR)
B1	comparable expression
B2	comparable expression
